Experiment [1] deals with T1, human AXL (full length) (human, UniProt P30530 26-894).
T1 construct: also called TH1021-AXL; TH1021-hAXL
In words: flow cytometry, A431 cells, no Gas6.

Experiment [2] concerns the target T2, AXLECDHis (human, UniProt P30530 26-447).
T2 construct: theoretical mass 46 kDa used; also called extracellular domain (ECD) of human AXL (aa 1-447) with a C-terminal His tag; soluble recombinant AXL extracellular domain
In words: BLI (Octet), IgG on anti-human Fc sensor, AXLECDHis analyte. In general terms: In BLI a coated tip is dipped into the sample, and binding shifts an interference pattern.

Experiment [3] has as its target T1, human AXL (full length). In words: flow cytometry, A431 cells pre-incubated with 10 µg/mL Gas6 (competitor).
The target of experiment [4] is T1, human AXL (full length). The experiment is described as follows: flow cytometry, HEK293T cells with full-length human AXL. On the technique in general: A flow cytometer gives signals particle by particle.
Experiment [5] addresses T2, AXLECDHis. The experiment is described as follows: BLI (Octet), IgG on anti-human Fc sensor, AXLECDHis analyte. The source holds these as a separate data set.
In experiment [6] the target is T3, human AXL with a cynomolgus monkey extracellular domain (ECD) (cynomolgus monkey (Macaca …, UniProt P30530 26-894)).
T3 construct: Chimera on transfected HEK293T cells; also called cynomolgus AXL; cynomolgus AXL-ECD
T3 chain: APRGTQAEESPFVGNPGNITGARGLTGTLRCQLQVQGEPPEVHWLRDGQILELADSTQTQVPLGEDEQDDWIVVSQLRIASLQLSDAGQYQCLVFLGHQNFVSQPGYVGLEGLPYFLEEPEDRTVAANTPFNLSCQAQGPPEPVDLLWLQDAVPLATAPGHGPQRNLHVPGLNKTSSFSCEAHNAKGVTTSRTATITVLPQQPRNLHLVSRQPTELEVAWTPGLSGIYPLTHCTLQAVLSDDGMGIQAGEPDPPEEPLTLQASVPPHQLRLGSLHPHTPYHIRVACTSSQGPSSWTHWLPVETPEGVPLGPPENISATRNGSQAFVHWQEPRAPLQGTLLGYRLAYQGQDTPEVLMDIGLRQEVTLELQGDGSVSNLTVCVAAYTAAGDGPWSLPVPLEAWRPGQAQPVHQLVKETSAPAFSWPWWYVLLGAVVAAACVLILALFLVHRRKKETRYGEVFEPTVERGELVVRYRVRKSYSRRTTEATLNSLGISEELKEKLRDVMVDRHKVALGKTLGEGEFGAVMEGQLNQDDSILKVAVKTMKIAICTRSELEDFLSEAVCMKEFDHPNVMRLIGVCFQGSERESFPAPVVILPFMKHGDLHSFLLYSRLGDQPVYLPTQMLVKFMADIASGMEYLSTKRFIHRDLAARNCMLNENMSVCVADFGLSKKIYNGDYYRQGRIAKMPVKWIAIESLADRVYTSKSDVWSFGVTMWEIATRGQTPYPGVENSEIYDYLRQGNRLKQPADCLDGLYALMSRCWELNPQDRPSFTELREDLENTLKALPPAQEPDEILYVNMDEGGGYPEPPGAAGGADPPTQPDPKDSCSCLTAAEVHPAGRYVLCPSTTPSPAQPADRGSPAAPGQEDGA
The experiment is described as follows: flow cytometry, HEK293T cells with human AXL carrying cynomolgus ECD.

Here are results for two molecules from patent publication US20180326084A1 (Genmab, published 2018).

Read-outs that look alike come from different tables or passages of the source.

B1: IgG1-AXL-511 (antibody, V domains shown)
VH: EVQLLESGGGLVQPGGSLRLSCAASGFTFSSYAMNWVRQAPGKGLEWVSGISGSGGHTYHADSVKGRFTISRDNSKNTLYLQMNSLRAEDTAVYYCAKDRYDILTGYYNLLDYWGQGTLVTVSS
VL: DIQMTQSPSSLSASVGDRVTITCRASQGISSWLAWYQQKPEEAPKSLIYAASSLQSGVPSRFSGSGSGTDFTLTISSLQPEDFATYYCQQYNSYPLTFGGGAKVEIK
notes: also called clone 511
Usually EC50 stands for the midpoint of the concentration-response curve. The term Kd denotes the constant that tells how readily two partners part at equilibrium. For orientation: koff means the first-order rate constant of dissociation. One may read the kon as a measure of how fast the partners come together. Take B1: the midpoint of the response in experiment [1], the EC50, lay at 0.12 µg/mL. Also, in experiment [2], the Kd amounted to 23 nM, the off-rate (koff) came out at 0.0039 s⁻¹ and the on-rate constant (kon) came to 170000 M⁻¹ s⁻¹. Besides, in experiment [3], the EC50 is 0.3 µg/mL and the “maximal binding in presence of Gas6 (% of binding in absence of Gas6)” value worked out at 93%.

B2: IgG1-AXL-183-N52Q (antibody, V domains shown)
VH: QVQLQQWGAGLLKPSETLSLTCAVYGGSFSGYYWSWIRQPPGKGLEWIGEIQQSGSTNYNPSLKSRVTISVDTSKNQFSLKLSSVTAADTSVYYCASGNWDHFFDYWGQGTLVTVSS
VL: DIQMTQSPSSVSASVGDRVTITCRASQGISSWLAWYQHKPGKAPKLLIYATSSLQSGVTSRFSGSGSGTDFTLTISSLQPEDFATYYCQQAKSFPWTFGQGTKVEIK
notes: Expressed as human IgG1,κ; also called IgG1-AXL-183-N520
As to B2, in experiment [2], the “fold change of dissociation rate against wild-type IgG1-AXL-183” value was roughly 2.5 fold. Also, in experiment [4], a half-maximal response (EC50) required 0.35 µg/mL. In experiment [5], binding was put at a Kd of 24 nM, the off-rate (koff) was found to be 0.001 s⁻¹ and the on-rate constant (kon) was found to be 42000 M⁻¹ s⁻¹. The EC50 in experiment [6] was found to be 0.324 µg/mL.
